Experimental data taken from PMC12644734.

Biological target: T1, SARS-CoV M protein (SARS-CoV), P59596
T1 chain: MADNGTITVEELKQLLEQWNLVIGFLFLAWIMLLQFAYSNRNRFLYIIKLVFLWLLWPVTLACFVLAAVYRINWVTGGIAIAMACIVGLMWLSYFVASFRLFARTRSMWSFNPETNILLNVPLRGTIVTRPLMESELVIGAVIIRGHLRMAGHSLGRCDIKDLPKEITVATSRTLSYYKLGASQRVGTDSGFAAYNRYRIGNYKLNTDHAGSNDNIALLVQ
Test: cryo-EM structure
Conditions: remark: other sources report otherwise

B1: SARS-CoV M protein, P59596 1-221 (natural protein)
chain: T1 chain
**Q.** How did the stoichiometry N turn out when B1 was run?
**A.** 2
